Target: T1, purified Mfn2 (human, UniProt O95140 1-757)
T1 sequence (looked up): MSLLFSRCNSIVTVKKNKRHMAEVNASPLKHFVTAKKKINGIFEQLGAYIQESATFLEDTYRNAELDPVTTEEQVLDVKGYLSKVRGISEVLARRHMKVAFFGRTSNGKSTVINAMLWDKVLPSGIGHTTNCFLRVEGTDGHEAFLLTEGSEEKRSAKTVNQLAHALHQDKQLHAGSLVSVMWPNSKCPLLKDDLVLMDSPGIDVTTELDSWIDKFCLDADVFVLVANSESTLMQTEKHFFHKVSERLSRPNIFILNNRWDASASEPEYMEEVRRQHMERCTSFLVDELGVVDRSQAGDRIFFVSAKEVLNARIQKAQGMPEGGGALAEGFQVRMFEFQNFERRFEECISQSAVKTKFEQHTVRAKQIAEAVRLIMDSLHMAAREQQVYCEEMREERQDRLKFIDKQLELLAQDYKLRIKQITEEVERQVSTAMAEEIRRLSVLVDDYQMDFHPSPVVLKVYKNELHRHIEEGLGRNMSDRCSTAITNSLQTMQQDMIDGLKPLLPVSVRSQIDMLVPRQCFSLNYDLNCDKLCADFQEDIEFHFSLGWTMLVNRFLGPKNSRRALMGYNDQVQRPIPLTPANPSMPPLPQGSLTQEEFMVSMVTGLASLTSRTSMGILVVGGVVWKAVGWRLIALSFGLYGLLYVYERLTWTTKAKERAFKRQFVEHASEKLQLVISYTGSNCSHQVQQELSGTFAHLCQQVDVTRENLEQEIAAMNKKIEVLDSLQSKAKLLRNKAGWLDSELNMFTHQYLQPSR
Assay: pull-down

binding result: binds
B1: purified and biotinylated TAK1 (enzyme, human, UniProt O43318 1-606, looked up)
chain: MSTASAASSSSSSSAGEMIEAPSQVLNFEEIDYKEIEVEEVVGRGAFGVVCKAKWRAKDVAIKQIESESERKAFIVELRQLSRVNHPNIVKLYGACLNPVCLVMEYAEGGSLYNVLHGAEPLPYYTAAHAMSWCLQCSQGVAYLHSMQPKALIHRDLKPPNLLLVAGGTVLKICDFGTACDIQTHMTNNKGSAAWMAPEVFEGSNYSEKCDVFSWGIILWEVITRRKPFDEIGGPAFRIMWAVHNGTRPPLIKNLPKPIESLMTRCWSKDPSQRPSMEEIVKIMTHLMRYFPGADEPLQYPCQYSDEGQSNSATSTGSFMDIASTNTSNKSDTNMEQVPATNDTIKRLESKLLKNQAKQQSESGRLSLGASRGSSVESLPPTSEGKRMSADMSEIEARIAATTAYSKPKRGHRKTASFGNILDVPEIVISGNGQPRRRSIQDLTVTGTEPGQVSSRSSSPSVRMITTSGPTSEKPTRSHPWTPDDSTDTNGSDNSIPMAYLTLDHQLQPLAPCPNSKESMAVFEQHCKMAQEYMKVQTEIALLLQRKQELVAELDQDEKDQQNTSRLVQEHKKLLDENKSLSTYYQQCKKQLEVIRSQQQKRQGTS
modifications: biotinylated

Reference: doi:10.1101/2022.01.11.475884 (bioRxiv, 2022)
